Data published in paper PMC8605356.

Experiments:
[1] = molecular target: α-D-fructofuranosidase and difructose dianhydride I synthase/hydrolase from Bifidobacterium dentium (Bifidobacterium dentium JCM 1195); assay: SEC; size-exclusion chromatography of the purified protein; conditions of this analysis not told (the purification used Hiload 16/60 Superdex 200 pg in 25 mM Tris HCl pH 7.0, 300 mM NaCl)
[2] = molecular target: α-D-fructofuranosidase and difructose dianhydride I synthase/hydrolase from Bifidobacterium dentium (Bifidobacterium dentium JCM 1195); assay: crystal structure; sitting drop vapor diffusion at 20 °C, 10 mg/ml αFFase1 in 5 mM Na acetate pH 6.0, reservoir 20% PEG 3350 and 0.2 M disodium tartrate; ligand-free and cocrystals with D-fructose or D-arabinose; hexamer in the asymmetric unit

Substance: α-D-fructofuranosidase and difructose dianhydride I synthase/hydrolase from Bifidobacterium dentium (enzyme)
- stoichiometry N [1]: 6
- stoichiometry N [2]: 6
